Laboratory results taken from the DeepSol protein solubility set.

Experiment: soluble on expression in E. coli; label from the status in PepcDB or PDB records

| Sequence | soluble on expression in E. coli |
| --- | --- |
| MGSDKIHHHHHHMKVYLSFDYELYFGAKSGSADACIIEPAKLLLEIAARHAVHLNFFIDSGYLLALEKYSKRYPSVAYEKQQVFKQIRELAAAGHDCQLHIHPHWEDSYYDGNGWKMNTNRYRLDHFPDAQIEQIVQSYYDITKDIAGKAPIAYRAGGWCMPPWNKVSAVFKKLGIWIDSTVYEKGYLQEGQIAFDFRKAPASDQWMFETDPVTEAPFGYFLELPISSISCSPLFFWNLYVRGRLNRSLHAGMGDGLPMAQPGTKKKLLTRYTQQALSCDGYYASLLTEEFYKRKAKGEDTMVVIGHPKAQSKFSVQALDTFISTVKDSAAFARYSDLQKD | not soluble |
| SSKKYKLSEIHHLHPEYVRVSEHFKASMKNFKIEKIKKIENSELLDKFTWKKSQMKEEGKLLFYATSRAYVESICSNNFDSFLHETHENKYGKGIYFAKDAIYSHKNCPYDAKNVVMFVAQVLVGKFIEGNITYTSPPPQFDSCVDTRSNPSVFVIFQKDQVYPQYVIEYTED | soluble |
| MAAKFHLKKAKDGQFHFNLHAANGEIILTSELYKAKDSALGGIESVRKNSQRDGAFEVKPANNGKFHFVLKATNGQVVGQSQLYASQANAEAGVQSVKRATPEAGLSDES | not soluble |
| MSANFTDKNGRQSKGVLLLRTLAMPSDTNANGDIFGGWIMSQMDMGGAILAKEIAHGRVVTVAVESMNFIKPISVGDVVCCYGQCLKVGRSSIKIKVEVWVKKVASEPIGERYCVTDAVFTFVAVDNNGRSRTIPRENNQELEKALALISEQPLLEHHHHHH | not soluble |
| MGSSHHHHHHGKTIFVIVPTNEEQVAFLEALAKQDELNFDWQNPPTEPGQPVVILIPSDMVEWFLEMLKAKGIPFTVYVEEGGSENLYFQGGGGGGDRMRQGWLRSSAALLERVHGHLKDQDRIFTNLYNDFGTGIDAAERRGDWYRTKDILLKGHDWVINEIKASGLRGRGGAGFPSGLKWSFMPKKKQDDRPSYIVVNCDESEPGTCKDREIMRHEPHKVVEGALLAGFAMRARYGYIYIRGEFYNEWRSVEKAIHEAYEKGYLGKNACGSGWDFDLYTYRGAGAYICGEETAMIASIEGGQGKPRLKPPFPANVGLYGCPTTVTNCETVAVSPTIIRRGPQWFAQFGRKGNAGTKLFCISGHVNRPCTVEEEMSMPLRELLERHAGGVRGGWDNLLCVIPGGSSCPLIPKHICDDILMDYDALKEAQTGLGTAAVIVMDKSTDVINAIERLSQFYMHESCGQCTPCREGSPWLDKMMKRFVNGNAKKEEIYTLWDVSKQMEGRSICALGTAAAWPVQGLIRHFKPLMEERIERFWEANPHWGQPGSPWRRWKTHRYYTMQKGDRLNWDGKIVRNWN | not soluble |
| MGSDKIHHHHHHMKYVLIQATDNGILRRAECGGAVTALFKYLLDKKLVDGVLALKRGEDVYDGIPTFITNSNELVETAGSLHCAPTNFGKLIAKYLADKKIAVPAKPCDAMAIRELAKLNQINLDNVYMIGLNCGGTISPITAMKMIELFYEVNPLDVVKEEIDKGKFIIELKNGEHKAVKIEELEEKGFGRRKNCQRCEIMIPRMADLACGNWGAEKGWTFVEICSERGRKLVEDAEKDGYIKIKQPSEKAIQVREKIESIMIKLAKKFQKKHLEEEYPSLEKWKKYWNRCIKCYGCRDNCPLCFCVECSLEKDYIEEKGKIPPNPLIFQGIRLSHISQSCINCGQCEDACPMDIPLAYIFHRMQLKIRDTLGYIPGVDNSLPPLFNIER | not soluble |
| MAHHHHHHMSVPKAALMQIFDLYDTDRAGWIPTKRIPYVLRTCGMISTQTEMETLLHDHFASRDTVTRSGFQKFLEQKDILKAEDFSSEKELATAFQVFDSRESGALTSDEVLTILTRMNEKIDVDAYHRVMDGLELNEQGMVEFAKLAAHMLRSANEYKLTVRQVLEELAE | soluble |
| MGTVLCSCLLGDNAKVRLKLSKMLEEEASGFYPDVLPEGSVSICEVEMKGCRREFYADRRSEEIEIGTPVIVEADGGFDMGVVYSTGRIALRKLQLKGLVSEVEKLPAIMRRATEEEVREFTEIRKREPEIREACLKRIERHQLDMKLVDIDLRLDQQKLSVYYTATHRIDFRGLVRDLAGEFKARIQMVQITTREEARRTNAQGSCGCALCCSTWMQKIHSNPFAEKPQMPDSMNGDNFSFNTIGLCNRPKCCLGFSKTNGKNGNCHHGKVRQNGWPSVGTTFTVRDGNAVVEGVDQQKKSIWIRYVSTGQKRRISLDQYNNMAGKRQGGQALEHHHHHH | not soluble |
| MTTVSVQIPAGWPATEERARAVQDELRARVVLDEPGPPPGTGRVTGVDVAYDDERDVVAAAAVVLDAGTLAVVAEATAVGRISFPYVPGLLAFREIPTVLAALEALPCPPGLVVCDGYGLAHPRRFGLASHLGVLTGLPTIGVAKNPFTFTHDDPDTPRGSTSPLLAGAEEVGRAVRTRDGVKPVFVSVGHRVGLGNACAHTLALTPAYRLPETTRRADALCRAALRDAAYRALEHHHHHH | not soluble |
| MGSDKIHHHHHHMFKTAVGHSNDPDSLSAIEEVLQQCVSSLGGDIPKAGILFSAIDFEHALILQQIHQFFPGIELIGGTTDGEISSVLEFQQDSITLMLFCSDEVEINAGVGRKVSVDPIAVTKQAVEQAKAKTTETPRLCLTHPESLTISGVSILHGLKLALGQNVPIFGGLAGDQSRYQNTYQFFQTEVLSDSVPILLFSGTILFSHGVASGWHPIGQISQVTKVDKNILYEIDGKPALDFYHHYLGLLPPSMEYPLAVFDQNRDNFYIRAPIAYNQDSGSITFFADIPDRAVIQIAEACYEDILAASKASFMNALNNYPGAEPSAVLFFSCVARRQILGTRAKEEYQNTKLCLTYHLPGCGFYSYGEIAPIDGMSQTQFHNETFVTLILGTR | not soluble |
| GIFPAEIEDLAQKQVAVDLTQPSRFLLKVLAGANIGAEFHLDSGKTYIVGSDPQVADIVLSDMSISRQHAKIIIGNDNSVLIEDLGSKNGVIVEGRKIEHQSTLSANQVVALGTTLFLLVDYAAPS | soluble |
| MGSDKIHHHHHHMDSLLFGISGLPNRNSNKKFTYKTGIEYLREIGLDAMELPFVRSVNITDKNKNEVLDTKLKNDFYLSAHGSYFINLNADEEEKIEKSLERIIKGAEGLKKVQGKSLIFHPGFYLKDSKEETFETIKENLLRLPDLGVDYRLETTGKGTQFGSLEENVALCKAVDTCKLCIDFSHIHARYNGSLKSYDDFARILNYVGNELGDEGLNDMHIHLSGINYTAKGERNHLPFEESDFNYKDCLKAFRDFDIKGCVICESPVLEHDALLLKNYYETL | not soluble |
| MKNVLILGAGGQIARHVINQLADKQTIKQTLFARQPAKIHKPYPTNSQIIMGDVLNHAALKQAMQGQDIVYANLTGEDLDIQANSVIAAMKACDVKRLIFVLSLGIYDEVPGKFVEWNNAVIGEPLKPFRRAADAIEASGLEYTILRPAWLTDEDIIDYELTSRNEPFKGTIVSRKSVAALITDIIDKPEKHIGENIGINQPGTDGDKPFFM | soluble |
| MGHHHHHHSHGTRMDHRSDLVFLADLRPEEIRYRLQHYFKFLFVREPLERLLSAYRNKFGEIREYQQRYGAEIVRRYRAGAGPSPAGDDVTFPEFLRYLVDEDPERMNEHWMPVYHLCQPCAVHYDFVGSYERLEADANQVLEWVRAPPHVRFPARQAWYRPASPESLHYHLCSAPRALLQDVLPKYILDFSLFAYPLPNVTKEACQQ | not soluble |
| MDITELLAFSAKQGASDLHLSAGLPPMIRVDGDVRRINLPPLEHKQVHALIYDIMNDKQRKDFEEFLETDFSFEVPGVARFRVNAFNQNRGAGAVFRTIPSKVLTMEELGMGEVFKRVSDVPRGLVLVTGPTGSGKSTTLAAMLDYLNNTKYHHILTIEDPIEFVHESKKCLVNQREVHRDTLGFSEALRSALREDPDIILVGEMRDLETIRLALTAAETGHLVFGTLHTTSAAKTIDRVVDVFPAEEKAMVRSMLSESLQSVISQTLIKKIGGGRVAAHEIMIGTPAIRNLIREDKVAQMYSAIQTGGSLGMQTLDMCLKGLVAKGLISRENAREKAKIPENFGAAALEHHHHHH | soluble |
| MPTAADNHWSMPPNPEKALMLAQRAVAVFVYDAVRLEGINFTLPEVQTLLQGVTVGGHRLSDQQIAVNQGEAWKLLFQMIRDGRFELTPDCAMALHGVAAKEEALEWGCFRSGSVLIAGTEYEPPAASELPTRFDRMIDELQHMDDVHDQAVHLFLTMARCQFFYDVNKRMGRFMMNGHLLSNGYPAINIPASSQLEFNELMLRFYDSGDQREMNAFVRSCMDERVVLIMKEELEHHHHHH | soluble |
| SVGREKELSIHFVPGSCRLVEEEVNIPNRRVLVTGATGLLGRAVHKEFQQNNWHAVGCGFRRARPKFEQVNLLDSNAVHHIIHDFQPHVIVHCAAERRPDVVENQPDAASQLNVDASGNLAKEAAAVGAFLIYISSDYVFDGTNPPYREEDIPAPLNLYGKTKLDGEKAVLENNLGAAVLRIPILYGEVEKLEESAVTVMFDKVQFSNKSANMDHWQQRFPTHVKDVATVCRQLAEKRMLDPSIKGTFHWSGNEQMTKYEMACAIADAFNLPSSHLRPITDSPVLGAQRPRNAQLDCSKLEILGIGQRTPFRIGIKESLWPFLIDKRWRQTVFH | soluble |
| MSLEKQKGLAIITGASQGIGAVIAAGLATDGYRVVLIARSKQNLEKVHDEIMRSNKHVQEPIVLPLDITDCTKADTEIKDIHQKYGAVDILVNAAAMFMDGSLSEPVDNFRKIMEINVIAQYGILKTVTEIMKVQKNGYIFNVASRAAKYGFADGGIYGSTKFALLGLAESLYRELAPLGIRVTTLCPGWVNTDMAKKAGTPFKDEEMIQPDDLLNTIRCLLNLSENVCIKDIVFEMKKSIIEGHHHHHH | soluble |
